The target in assay [1] is GFP polybody (His-tagged GFP nanobody-TMS reconstituted in peptidisc). The experiment in a line: BLI. Background: BLI is a label-free optical method that tracks binding on a fibre tip over time.
The target of the next assay is His-tagged GFP nanobody. The assay is described as follows: BLI.

For the substance “His-tagged GFP (green fluorescent protein) (from UniProt P42212 1-238) (natural protein)”, the results for the Kd (in assay [1]; with His-tagged GFP nanobody) were 2.72 nM and 0.75 nM, respectively.

The values are drawn from doi:10.1101/2024.12.31.630897.
